Ends that are not written are not given here.

The values below come from patent US20180284123A1 (CALIFORNIA INSTITUTE OF TECHNOLOGY, published 2018).

In experiment [1] the target is T1, His6-tagged human KRas Isoform 4B (residues 1-169) (human, UniProt P01116-2 1-169).
T1 construct: Expressed in E. coli BL21(DE3), purified on Ni-NTA; also called KRas protein; WT KRas protein; not shown: His6 tag from the PQE80 vector
As to the kind of experiment: barcoded rapid assay microchip, fitted curves of FIG. 6B (Hill coefficient 1), triplicate.

Experiment [2] addresses T1, His6-tagged human KRas Isoform 4B …. The experiment can be described thus: multi-well sandwich ELISA; ligand on Neutravidin plate, KRas 0-300 µM; footnote b: poorly resolved. The procedure:
A 96-well Pierce Neutravidin Plate was washed with binding buffer (3×5 minutes at RT) before loading plate with a 1 μM solution of either blank (biotin-PEG₅-NHAc) (singly) or biotinylated PCC ligand (in triplicate). The plate incubated for two hours before washing with binding buffer (3×5 minutes). Blocking buffer was added to each well and the plate blocked for one hour before undergoing washing with binding buffer (3×5 minutes). Each well was loaded with either binding buffer or KRas solution (0→300 μM), and the plate was incubated for 30 minutes. Plate washing with binding buffer (3×5 minutes) preceded incubating the plate with a (1000:1) dilution of 1° antibody (ab) rabbit anti-Ras (CST #3965) in ab buffer for thirty minutes. The plate was washed with binding buffer (3×5 minutes), loaded with a (2000:1) dilution of 2° ab goat anti-rabbit, HRP-linked ab (CST #7074) in ab buffer, and incubated for an additional thirty minutes. The plate was rinsed with binding buffer (3×5 minutes), TBS (1×5 minutes), loaded with a (1:1) mixture of TMB Peroxidase Solution and TMB Peroxidase Solution B, and developed with occasional agitation for 8-12 minutes. After quenching the enzymatic reaction with 1M H₂SO_{4(aq)} (100 μL) the plate was read at λ=450 nm within ten minutes. The data was double background corrected using the ab only absorbance and the dummy ligand absorbance, plotted using Prism GraphPad 7 (Sigmoidal 4PL mode with the Hill coefficient set=1), and an EC₅₀ value was calculated.
(In general: In an ELISA, binding on a coated surface is turned into a signal by an enzyme label.)

The target is the same in experiment [3]. The experiment can be described thus: cell-based or functional assay.
For experiment [4] the target is unchanged. As to the kind of experiment: B-RAP surface immunofluorescence assay; ligand on barcode via SAC-DNA, KRas titrated 0-400 µM. The procedure:
After extraction the data is background corrected. The background signal arises from (a) non-specific binding of the primary and secondary antibodies (independent of [KRas]), but can vary across different barcode stripes), and (b) non-specific binding of KRas protein ([KRas] dependent). Background (a) was assessed by measuring the average signal in the null protein well for each stripe. Background (b) was assessed by measuring the average fluorescence for the dummy ligand (Biotin* probe) that was in each well. The background subtracted data was then graphed in Graphpad Prism 7 and fitted to a sigmoidal curve (Hill coefficient=1).
A pre-fabricated PDMS template was aligned onto the DNA barcode microchip, and the microchip was taped into a 10 cm petri dish. The wells on the platform were wet with 50 μL PBST before filling with blocking buffer and placing into a 37° C. incubator for 1 hr. Concurrently, 40 μL 1% BSA in PBS solutions containing 750 nM of a SAC-DNA conjugate and 3.75 μM of one biotinylated PCC ligand or biotin-A₂₀-Cy3 blank were prepared for each SAC-DNA conjugate. The biotinylated ligands were allowed to complex with the SAC protein for one hour before pooling the SAC-DNA-ligand solutions (final [SAC-DNA-ligand conjugates]=50 nM). The blocking buffer was aspirated and each well was loaded with the SAC-DNA-ligand conjugates cocktail for hybridization with the DNA barcode at 37° C. for one hour. The wells were washed with PBST (3×) before loading serially diluted solutions of KRas protein in protein buffer (0 to 400 μM). After shaking at RT for one hour, the wells were rinsed with PBST (5×), making sure to pipet up/down with the first addition of PB ST. A (100:1) dilution of CST rabbit anti-Ras Ab (#39655) in 1° ab buffer was added to each well before shaking at RT for one hour. After rinsing the wells with PBST (3×), the wells were loaded with a (200:1) dilution of Abcam goat anti-rabbit-Alexafluor 647 linked ab (ab150079) in 2° ab buffer before shaking at RT for one hour. A final rinse of the wells with PBST (3×) proceeded peeling off the PDMS slab from the barcode microchip and dipping the barcode into the following solutions: PBS, (1:1) PBS: MQ H₂O, MQ H₂O (2×). After being spun dry, the barcode was read on the Genepix (635 nm, PMT 600, PWR 40% (60 W); 532 nm, PMT 450, PWR 15% (23 W)).

B1: L2 (peptide)
peptide: EGVPV
modifications: triazole (positions not given here); not fully specified (bridges); also: macrocycle closed by 1,4-triazole, propargylglycine click handle, other ring residues not given here
notes: also called EGVPV
Usually EC50 stands for the concentration that produces a half-maximal response. A low value points to greater potency. As to B1, the EC50 was found to be 8.19 µM in experiment [1], 33.2 µM in experiment [2] and 3.31 µM in experiment [4]. Further, the “IC50 of the intrinsic GTPase activity of KRas (GTPase-Glo, 10 µM KRas, four-hour incubation)” value in experiment [3] was 24 µM. The “IC50 of the intrinsic GTPase enzymatic activity of KRas” value in experiment [3] is approximately 20 µM.
